Test results as given in PMC11725853 (Proceedings of the National Academy of Sciences of the …, 2024).

B1: human cone cGMP-phosphodiesterase PDE6C catalytic subunit (residues 2-830), catalytic homodimer of holoPDE6C (enzyme, UniProt P51160 2-830, looked up)
chain: GEINQVAVEKYLEENPQFAKEYFDRKLRVEVLGEIFKNSQVPVQSSMSFSELTQVEESALCLELLWTVQEEGGTPEQGVHRALQRLAHLLQADRCSMFLCRSRNGIPEVASRLLDVTPTSKFEDNLVGPDKEVVFPLDIGIVGWAAHTKKTHNVPDVKKNSHFSDFMDKQTGYVTKNLLATPIVVGKEVLAVIMAVNKVNASEFSKQDEEVFSKYLNFVSIILRLHHTSYMYNIESRRSQILMWSANKVFEELTDVERQFHKALYTVRSYLNCERYSIGLLDMTKEKEFYDEWPIKLGEVEPYKGPKTPDGREVNFYKIIDYILHGKEEIKVIPTPPADHWTLISGLPTYVAENGFICNMMNAPADEYFTFQKGPVDETGWVIKNVLSLPIVNKKEDIVGVATFYNRKDGKPFDEHDEYITETLTQFLGWSLLNTDTYDKMNKLENRKDIAQEMLMNQTKATPEEIKSILKFQEKLNVDVIDDCEEKQLVAILKEDLPDPRSAELYEFRFSDFPLTEHGLIKCGIRLFFEINVVEKFKVPVEVLTRWMYTVRKGYRAVTYHNWRHGFNVGQTMFTLLMTGRLKKYYTDLEAFAMLAAAFCHDIDHRGTNNLYQMKSTSPLARLHGSSILERHHLEYSKTLLQDESLNIFQNLNKRQFETVIHLFEVAIIATDLALYFKKRTMFQKIVDACEQMQTEEEAIKYVTVDPTKKEIIMAMMMTACDLSAITKPWEVQSQVALMVANEFWEQGDLERTVLQQQPIPMMDRNKRDELPKLQVGFIDFVCTFVYKEFSRFHKEITPMLSGLQNNRVEWKSLADEYDAKMKVIEEEA

Legend:
[1] = biological target: trypsin-activated PDE6 from mouse retina extracts (mouse (endogenous in retina)) (UniProt P27664); test: inhibition of enzyme activity
[2] = biological target: trypsin-activated PDE6 isolated from bovine rod outer segment membranes (bovine) (UniProt P11541); test: inhibition of enzyme activity
mass photometry = biological target: the molecule itself; test: mass photometry

Molecule	Ki [1]	Ki [2]	also measured
synthetic peptide of the C-terminus of Pγc, Pγc-59-83 (from UniProt Q13956 59-83)	8200 nM		
synthetic peptide of the 25 C-terminal residues of Pγr, Pγr-63-87 (from UniProt P18545 63-87)	2500 nM		
full-length Pγr (isolated protein used in PDE6 activity assays) (from UniProt P18545 1-87) (natural protein)		0.0294 nM	
full-length Pγc (isolated protein used in PDE6 activity assays) (from UniProt Q13956 1-83) (natural protein)		0.0755 nM	
B1			stoichiometry N (mass photometry): 2
